Results taken from US20220174981A1, “PROLINE TOLERANT TRIPEPTIDYL PEPTIDASES AND USES THEREOF” (DuPont Nutrition Biosciences APS, priority 2014, published 2022).
Changes are numbered by the printed parent chain.

How the values were obtained:
[1] = system: sodium caseinate; assay: 5% sodium caseinate hydrolysis with endopeptidase, TRI083 and PepN, serine equivalents; type: biochemical; conditions: doubling of the PepN activity from 786 to 1572 nkat/mL
[2] = system: H-Ala-Ala-Ala-OH; assay: Pre-hydrolysis of H-Ala-Ala-Ala-OH by PepN, gas chromatography; type: biochemical; conditions: 24 h, 40° C., pH 4.0
Procedure: The inhibition experiments were set up as described in Example 14. Furthermore, 1 mg/mL H-Ala-Ala-Ala-OH (Bachem, Switzerland) was subjected to general aminopeptidase (PepN) hydrolysis for 24 h at 40° C. in 12.5 times diluted McIlvaine buffer (pH 4.0). For this, […] H-Ala-Ala-Ala-OH was dissolved in 8 mL 10 times diluted McIlvaine buffer (pH 4.0) and filled up to 10 mL with purified PepN (1,572 nkat/mL [pH 6.5]). After 24 h of hydrolysis, the PepN hydrolysis was terminated by heat inactivation of the PepN (90° C.; 10 min). The degree of pre-hydrolysis of H-Ala-Ala-Ala-OH was determined by gas chromatography (Husek, 1991; FEBS-Letters 280, 354-356). About 0.18 mg/mL alanine was measured, which corresponds to about 54% hydrolyses of the initially applied H-Ala-Ala-Ala-OH.

[3] = general aminopeptidase (Pep N) of the named origin; cited from earlier work
[4] = system: azocasein; assay: Azocasein assay for endoprotease activity; type: biochemical; conditions: PepN applied in WPI hydrolysis
Procedure: (§1) A modified version of the endoprotease assay described by Iversen and Jørgensen, 1995 (Biotechnology Techniques 9, 573-576) is used. An enzyme sample of 50 μl is added to 250 μl of azocasein (0.25% w/v; from Sigma) in 4 times diluted McIlvaine buffer, pH 5 and incubated for 15 min at 40° C. with shaking (800 rpm). The reaction is terminated by adding 50 μl of 2 M trichloroacetic acid (TCA) (from Sigma Aldrich, Denmark) and centrifugation for 5 min at 20,000 g. To a 195 μl sample of the supernatant 65 μl of 1 M NaOH is added and absorbance at 450 nm is measured. One unit of endoprotease activity is defined as the amount which yields an increase in absorbance of 0.1 in 15 min at 40° C. at 450 nm.
as §1, with “Jorgensen,” for “Jørgensen,”, “1995” for “1995 (Biotechnology Techniques 9, 573-576)”, “TCA” for “trichloroacetic acid (TCA) (from Sigma Aldrich, Denmark)”, “C.” for “C. at 450 nm.”
Endopeptidase side-activity was measured with the azocasein as described in Example 2.

[5] = target: T1, H-Ala-Pro-pNA (Lactobacillus helveticus, UniProt Q10730); assay: X-prolyl-dipeptidyl (PepX) side-activity; type: biochemical; conditions: PepN applied in WPI hydrolysis
T1 construct: His-tag; made in house; host or cells: E. coli
T1 sequence (Q10730 1-844 F39I/L44F/S342A/S372G/S496N/T525I/H527L): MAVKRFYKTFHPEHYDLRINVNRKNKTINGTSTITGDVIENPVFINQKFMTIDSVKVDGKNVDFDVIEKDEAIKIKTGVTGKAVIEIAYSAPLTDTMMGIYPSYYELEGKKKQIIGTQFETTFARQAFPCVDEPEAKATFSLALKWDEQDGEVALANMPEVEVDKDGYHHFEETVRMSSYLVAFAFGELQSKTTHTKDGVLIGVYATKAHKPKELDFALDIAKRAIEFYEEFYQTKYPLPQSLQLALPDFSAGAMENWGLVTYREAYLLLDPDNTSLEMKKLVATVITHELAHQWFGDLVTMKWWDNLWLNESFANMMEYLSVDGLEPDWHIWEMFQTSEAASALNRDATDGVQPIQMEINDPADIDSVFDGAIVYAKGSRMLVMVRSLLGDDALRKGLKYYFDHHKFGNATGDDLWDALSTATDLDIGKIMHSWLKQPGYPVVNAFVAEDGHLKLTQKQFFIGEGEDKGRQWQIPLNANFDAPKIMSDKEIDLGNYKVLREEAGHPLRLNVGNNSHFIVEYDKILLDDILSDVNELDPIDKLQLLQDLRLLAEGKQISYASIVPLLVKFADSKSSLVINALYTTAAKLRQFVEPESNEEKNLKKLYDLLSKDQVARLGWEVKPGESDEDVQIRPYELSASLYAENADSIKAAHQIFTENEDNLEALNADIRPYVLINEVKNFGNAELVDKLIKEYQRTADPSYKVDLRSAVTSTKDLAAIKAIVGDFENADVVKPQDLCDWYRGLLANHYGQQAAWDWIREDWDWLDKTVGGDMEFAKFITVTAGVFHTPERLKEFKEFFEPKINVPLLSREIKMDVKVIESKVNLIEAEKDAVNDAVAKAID

[6] = system: whey protein isolate (WPI); assay: 15% WPI hydrolysis at pH 6, 50° C. with endopeptidases, TRI079 and PepN; type: biochemical; conditions: 24 h
Procedure: For WPI hydrolysis, Lacprodan-9224 (Arla Food Ingredients, Denmark) was employed, a 15% (w/w) WPI suspension was prepared in H2Od and adjusted to pH 6 with sodium hydroxide. To prevent microbial growth, 0.0285% (w/w) NaN3 was added. Subsequently, 0.5% (w/w on protein substrate) Food Pro® Alkaline Protease and 0.5% (w/w on protein substrate) Food Pro® PNL was added and a volume of 200 μl of the WPI suspension was transferred into each of the 96 wells of a microtiter plate (MTP; VWR, Denmark). Following this, 5 μl of the proline tolerant tripeptidyl peptidase TRI079 containing either 0 or 2188 nkat/mL and 5 ul of PepN (described in EXAMPLE 10) containing either 0, 197 or 393 nkat/mL were added to the particular wells of the MTP. Then, the MTP was sealed and placed in an incubator at 50° C. (iEMS incubator/shaker HT, Thermo Scientific, Denmark).
After 24 h of incubation and shaking at 400 rpm, the hydrolysis was stopped by addition of 20 μl of 2 M trichloroacetic acid (TCA; Sigma-Aldrich, Denmark), except for the reference (0 h) to which the TCA was added prior to endo- and exopeptidase addition. […] The measured absorptions at 340 nm in a MTP reader (VersaMax, Molecular Devices, Denmark) were transformed into serine equivalents employing a serine calibration curve (0-2 mM).

B1: PepN: recombinantly in E. coli expressed and His-tag purified general aminopeptidase (PepN) from Lactobacillus helveticus ATCC 12046 (protein, UniProt Q10730 1-844, looked up)
Aminopeptidase N: T1 sequence (Q10730 1-844 F39I/L44F/S342A/S372G/S496N/T525I/H527L) with I39F, F44L, A342S, G372S, N496S, I525T, L527H
modifications: His-tag
increase of serine equivalents [1]: 10 mM
alanine measured ([2]; 1 mg/mL H-Ala-Ala-Ala-OH): About 0.18 mg/mL
hydrolyses of the initially applied H-Ala-Ala-Ala-OH [2]: about 54%
Substrate Specificity [3]: Ala, Lys, Arg, Leu, Phe, Val, Ile, and Pro
pH-optimum [3]: 6.5
temp.-range [3]: 10-50 C.
endopeptidase side-activity [4]: free of endopeptidase
X-prolyl-dipeptidyl (PepX) side-activity [5]: free of
DH (in %) of WPI hydrolysate ([6]; PepN 197, TRI 079 0 nkat/mL): 18.2%
DH (in %) of WPI hydrolysate ([6]; PepN 393, TRI 079 0 nkat/mL): 18.8%
